# Measured values taken from paper PMC10237653.
# Tests used:
# [1] = target: GST-fused AjTmod (complete AjTmod sequence) (Apostichopus japonicus); experiment: MST; Monolith NT.115; NT-647-NHS labelled protein (about 5 uM) with 16 serial concentrations of unlabelled His-fused actin; 50 mM Tris-HCl pH 8.0, 0.02% Tween 20; 25 °C
# [2] = target: GST-fused AjTmod after the addition of His-fused STPKLRR (phosphorylated AjTmod) (Apostichopus japonicus); experiment: MST; as a4, but His-fused STPKLRR (5 uM) added to GSTTmod/His-fused actin and incubated for 10 min
substance,measurement,setting,value
His-fused actin (natural protein),Kd,[1],1.46 nM
same,Kd,[2],7.16 nM
